From paper PMC314469, “Protein Interaction Networks by Proteome Peptide Scanning” (PLoS Biology, 2004) come the findings set out here.

T1: amphyphisin SH3 (AMPH_HUMAN), P49418
T1 chain: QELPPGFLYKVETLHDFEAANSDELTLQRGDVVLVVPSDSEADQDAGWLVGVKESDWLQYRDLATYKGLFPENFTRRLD

The first experiment addresses T1, amphyphisin SH3 (AMPH_HUMAN), P49418. The experiment can be described thus: SPOT array.
For AERPPSKPPPVELR [Q14203 913-927], the normalised SPOT signal, Boehringer light units (BLU); mean over the file's lines of this peptide is 70.7.

In the case of EADSIPRPYRSQQS [O15015 40-53], the normalised SPOT signal, Boehringer light units (BLU); mean over the file's lines of this peptide turned out to be 10.4.

EASIFRRPYYVSHF [O15360 570-583] displayed a normalised SPOT signal, Boehringer light units (BLU); mean over the file's lines of this peptide of 59.

Consider DVLSPLRPSRRHFP [Q12756 1091-1104], for which the normalised SPOT signal, Boehringer light units (BLU); mean over the file's lines of this peptide worked out at 9010.

In turn, DSGQPRRPGQSPLS [O75111 1249-1262] came in with a normalised SPOT signal, Boehringer light units (BLU); mean over the file's lines of this peptide of 20.2.

Turning to EDAKLRRPMVIEII [Q9NZ29 33-46], the normalised SPOT signal, Boehringer light units (BLU); mean over the file's lines of this peptide was 34.7.

Consider EAQFFLRPLRSYGD [P78357 768-781], for which the normalised SPOT signal, Boehringer light units (BLU); mean over the file's lines of this peptide was determined as 3170.

DRWDPTRPPRATDT [O95180 738-751] returned a normalised SPOT signal, Boehringer light units (BLU); mean over the file's lines of this peptide of 360.

DPRRPKRPRTILTT [O60663 192-205] returned a normalised SPOT signal, Boehringer light units (BLU); mean over the file's lines of this peptide of 183.

For DRFPLKRPRYEDSD [O94913 808-821], the normalised SPOT signal, Boehringer light units (BLU); mean over the file's lines of this peptide was found to be 129.

Consider DVIIPAKPPVSFFS [Q96K45 88-102], for which the normalised SPOT signal, Boehringer light units (BLU); mean over the file's lines of this peptide worked out at 15.7.

For DVTDPKRPLSFGVT [Q9P2C6 232-245], the normalised SPOT signal, Boehringer light units (BLU); mean over the file's lines of this peptide turned out to be 1.7.

Regarding DRPIIDRPIRGRGG [Q9Y367 154-167], the normalised SPOT signal, Boehringer light units (BLU); mean over the file's lines of this peptide was 325.

For the molecule DPRTPRRPRSARAG [Q9H901 24-37], the normalised SPOT signal, Boehringer light units (BLU); mean over the file's lines of this peptide was found to be 59.5.

Consider DPSPPRRPQHNSSG [Q96LS7 199-212], for which the normalised SPOT signal, Boehringer light units (BLU); mean over the file's lines of this peptide came out at 45.

In turn, DTALLPRPERRSSL [Q9Y2E3 518-531] displayed a normalised SPOT signal, Boehringer light units (BLU); mean over the file's lines of this peptide of 112.

In turn, EASSPARPSKHSVG [Q92932 121-134] displayed a normalised SPOT signal, Boehringer light units (BLU); mean over the file's lines of this peptide of 231.

AEILPRRPPTPEAQ [Q9BTK6 128-142] displayed a normalised SPOT signal, Boehringer light units (BLU); mean over the file's lines of this peptide of 57.4.

Turning to DSPLPRRPAFSGTS [Q9HBB0 94-107], the normalised SPOT signal, Boehringer light units (BLU); mean over the file's lines of this peptide is 11.5.

Consider DRPKPPRPPTGRPS [P51512 320-334], for which the normalised SPOT signal, Boehringer light units (BLU); mean over the file's lines of this peptide came out at 574.

For EALEIPRPLRALDQ [Q9HCK4 1228-1241], the normalised SPOT signal, Boehringer light units (BLU); mean over the file's lines of this peptide came to 0.

Regarding DSPSFSRPSKYSPG [O14905 71-84], the normalised SPOT signal, Boehringer light units (BLU); mean over the file's lines of this peptide stood at 30.7.

For DTKALRRPKSAELH [P07949 469-482], the normalised SPOT signal, Boehringer light units (BLU); mean over the file's lines of this peptide worked out at 25.9.

EASGPERPPALLQE [Q03431 573-587] yielded a normalised SPOT signal, Boehringer light units (BLU); mean over the file's lines of this peptide of 52.1.

As to DPSGLPRPQKIPIS [Q9H591 280-293], the normalised SPOT signal, Boehringer light units (BLU); mean over the file's lines of this peptide stood at 149.

In turn, DTTSPSRPPGGPII [Q9Y2E5 978-992] returned a normalised SPOT signal, Boehringer light units (BLU); mean over the file's lines of this peptide of 36.5.

For DTYRPKRPTTLNLF [Q9UQF2 154-167], the normalised SPOT signal, Boehringer light units (BLU); mean over the file's lines of this peptide was found to be 75.1.

The molecule EDALPTRPKKRARS [Q9UPW0 160-173] returned a normalised SPOT signal, Boehringer light units (BLU); mean over the file's lines of this peptide of 672.

As to EALKLRRPPDASGA [P24530 73-86], the normalised SPOT signal, Boehringer light units (BLU); mean over the file's lines of this peptide was 35.9.

Molecule DVPAFVRPARVEPT [Q9C0A3 802-815] returned a normalised SPOT signal, Boehringer light units (BLU); mean over the file's lines of this peptide of 4540.

Regarding AEGPPKRPGGSSPL [P48634 1665-1678], the normalised SPOT signal, Boehringer light units (BLU); mean over the file's lines of this peptide came to 50.3.

AEMTFRRPAQAFPV [P07949 672-685] returned a normalised SPOT signal, Boehringer light units (BLU); mean over the file's lines of this peptide of 26.9.

In turn, EAGSPRRPRRQRSD [Q15015 1069-1082] displayed a normalised SPOT signal, Boehringer light units (BLU); mean over the file's lines of this peptide of 8310.

As to DVVPPIKPPKEIED [O14967 255-269], the normalised SPOT signal, Boehringer light units (BLU); mean over the file's lines of this peptide is 43.9.

Molecule DTPPPSRPEKKKAD [P12111 1626-1639] displayed a normalised SPOT signal, Boehringer light units (BLU); mean over the file's lines of this peptide of 78.7.

EARKPAKPPVSPKP [Q8WXD9 1216-1230] gave a normalised SPOT signal, Boehringer light units (BLU); mean over the file's lines of this peptide of 53.6.

Take DTLNIRRPLVKMVY [Q9P0U0 373-386]: the normalised SPOT signal, Boehringer light units (BLU); mean over the file's lines of this peptide was determined as 24.3.

In turn, DQIPPNKPPWFDQP [O00302 379-393] came in with a normalised SPOT signal, Boehringer light units (BLU); mean over the file's lines of this peptide of 43.4.

Another experiment addresses endophilin SH3 (SH3G2_HUMAN), Q99962. The experiment can be described thus: SPOT array.
For the molecule AERPPSKPPPVELR [Q14203 913-927], the normalised SPOT signal, Boehringer light units (BLU); mean over the file's lines of this peptide was 67.4.

In the case of EADSIPRPYRSQQS [O15015 40-53], the normalised SPOT signal, Boehringer light units (BLU); mean over the file's lines of this peptide worked out at 0.

In turn, EASIFRRPYYVSHF [O15360 570-583] showed a normalised SPOT signal, Boehringer light units (BLU); mean over the file's lines of this peptide of 211.

DVLSPLRPSRRHFP [Q12756 1091-1104] gave a normalised SPOT signal, Boehringer light units (BLU); mean over the file's lines of this peptide of 2630.

DSGQPRRPGQSPLS [O75111 1249-1262] had a normalised SPOT signal, Boehringer light units (BLU); mean over the file's lines of this peptide of 80.5.

For the molecule EDAKLRRPMVIEII [Q9NZ29 33-46], the normalised SPOT signal, Boehringer light units (BLU); mean over the file's lines of this peptide is 74.7.

Take EAQFFLRPLRSYGD [P78357 768-781]: the normalised SPOT signal, Boehringer light units (BLU); mean over the file's lines of this peptide was 104.

The molecule DRWDPTRPPRATDT [O95180 738-751] had a normalised SPOT signal, Boehringer light units (BLU); mean over the file's lines of this peptide of 62.2.

Take DPRRPKRPRTILTT [O60663 192-205]: the normalised SPOT signal, Boehringer light units (BLU); mean over the file's lines of this peptide was 948.

DRFPLKRPRYEDSD [O94913 808-821] came in with a normalised SPOT signal, Boehringer light units (BLU); mean over the file's lines of this peptide of 144.

As to DVIIPAKPPVSFFS [Q96K45 88-102], the normalised SPOT signal, Boehringer light units (BLU); mean over the file's lines of this peptide was 53.1.

Regarding DVTDPKRPLSFGVT [Q9P2C6 232-245], the normalised SPOT signal, Boehringer light units (BLU); mean over the file's lines of this peptide stood at 37.5.

DRPIIDRPIRGRGG [Q9Y367 154-167] displayed a normalised SPOT signal, Boehringer light units (BLU); mean over the file's lines of this peptide of 192.

The molecule DPRTPRRPRSARAG [Q9H901 24-37] gave a normalised SPOT signal, Boehringer light units (BLU); mean over the file's lines of this peptide of 203.

Regarding DPSPPRRPQHNSSG [Q96LS7 199-212], the normalised SPOT signal, Boehringer light units (BLU); mean over the file's lines of this peptide worked out at 238.

DTALLPRPERRSSL [Q9Y2E3 518-531] showed a normalised SPOT signal, Boehringer light units (BLU); mean over the file's lines of this peptide of 65.4.

The molecule EASSPARPSKHSVG [Q92932 121-134] had a normalised SPOT signal, Boehringer light units (BLU); mean over the file's lines of this peptide of 211.

In the case of AEILPRRPPTPEAQ [Q9BTK6 128-142], the normalised SPOT signal, Boehringer light units (BLU); mean over the file's lines of this peptide came to 32.7.

For DSPLPRRPAFSGTS [Q9HBB0 94-107], the normalised SPOT signal, Boehringer light units (BLU); mean over the file's lines of this peptide amounted to 971.

DRPKPPRPPTGRPS [P51512 320-334] yielded a normalised SPOT signal, Boehringer light units (BLU); mean over the file's lines of this peptide of 7650.

In turn, EALEIPRPLRALDQ [Q9HCK4 1228-1241] showed a normalised SPOT signal, Boehringer light units (BLU); mean over the file's lines of this peptide of 0.

In turn, DSPSFSRPSKYSPG [O14905 71-84] showed a normalised SPOT signal, Boehringer light units (BLU); mean over the file's lines of this peptide of 57.1.

DTKALRRPKSAELH [P07949 469-482] had a normalised SPOT signal, Boehringer light units (BLU); mean over the file's lines of this peptide of 63.

Take EASGPERPPALLQE [Q03431 573-587]: the normalised SPOT signal, Boehringer light units (BLU); mean over the file's lines of this peptide came out at 62.6.

For DPSGLPRPQKIPIS [Q9H591 280-293], the normalised SPOT signal, Boehringer light units (BLU); mean over the file's lines of this peptide was 112.

For DTTSPSRPPGGPII [Q9Y2E5 978-992], the normalised SPOT signal, Boehringer light units (BLU); mean over the file's lines of this peptide is 72.7.

With DTYRPKRPTTLNLF [Q9UQF2 154-167], the normalised SPOT signal, Boehringer light units (BLU); mean over the file's lines of this peptide was found to be 1540.

On to EDALPTRPKKRARS [Q9UPW0 160-173], for which the normalised SPOT signal, Boehringer light units (BLU); mean over the file's lines of this peptide was determined as 291.

EALKLRRPPDASGA [P24530 73-86] displayed a normalised SPOT signal, Boehringer light units (BLU); mean over the file's lines of this peptide of 42.8.

In turn, DVPAFVRPARVEPT [Q9C0A3 802-815] displayed a normalised SPOT signal, Boehringer light units (BLU); mean over the file's lines of this peptide of 72.7.

Consider AEGPPKRPGGSSPL [P48634 1665-1678], for which the normalised SPOT signal, Boehringer light units (BLU); mean over the file's lines of this peptide stood at 291.

For AEMTFRRPAQAFPV [P07949 672-685], the normalised SPOT signal, Boehringer light units (BLU); mean over the file's lines of this peptide is 116.

Take EAGSPRRPRRQRSD [Q15015 1069-1082]: the normalised SPOT signal, Boehringer light units (BLU); mean over the file's lines of this peptide came to 377.

With DVVPPIKPPKEIED [O14967 255-269], the normalised SPOT signal, Boehringer light units (BLU); mean over the file's lines of this peptide worked out at 54.5.

In turn, DTPPPSRPEKKKAD [P12111 1626-1639] registered a normalised SPOT signal, Boehringer light units (BLU); mean over the file's lines of this peptide of 101.

Molecule EARKPAKPPVSPKP [Q8WXD9 1216-1230] showed a normalised SPOT signal, Boehringer light units (BLU); mean over the file's lines of this peptide of 1650.

As for DTLNIRRPLVKMVY [Q9P0U0 373-386], the normalised SPOT signal, Boehringer light units (BLU); mean over the file's lines of this peptide stood at 60.9.

Turning to DQIPPNKPPWFDQP [O00302 379-393], the normalised SPOT signal, Boehringer light units (BLU); mean over the file's lines of this peptide worked out at 46.9.
